Laboratory results from the DeepSol protein solubility set.

Assay: soluble on expression in E. coli; label from the status in PepcDB or PDB records

Row | Sequence | soluble on expression in E. coli
1 | MGSDKIHHHHHHMLRVWVGSKPVGVLDRSGRRGSTFVYDVKADDRDAVSLTMPKRTESWNSEFGLLPIFDMNLPEGALEGKIRTAFAKALGHFDDLDLLAVVGRSQIGRIRFTGMDEELVEDVPFRSIDDLLRARRAGDLYNDLLETYAVHSGVAGVQPKVLVRAREDDPSDGRQSLSVRGATHIVKMWDPDEYPELAANEFFCLMAAQQVGLEVPDFRLSEDGLALVVERFDLTDGSYSGYEDFCALNGVTSKDKYNGGYETKLFKRIKEFVSPENAVGSLEVAFRLFVINCGIRNGDAHLKNFGVVYKDAESPVRLAPVYDLITTRAYIKNDAMALTLDGSTAWPDRKKLDRLGVTRANLRPGRVAEIVEQTCDALSDVSGRVKAYFEESSFPEVGEKMLREWQAGVGSLSEGKTIHLMEALDATSARND | not soluble
2 | MALTSDTQLNDIMRAAEAHKRIRGNLQKILKPGCSVREIIKYVEDSTRIMLHGEKNNGIGFPCGVSLNNVAAHFSLNPWNEDIILTKNDVLKIDFGTHSNGRIVDSAFSVSFDEKYTNLLLATKEATERGIKVIGIDMAVCEIGKEISEVFKSFEFEENGKMINIKPIWNLNGHSIDQYKIHAGISIPSINNGDYSRITPGFFAIETFASTGIGEIKDYGECSHFALASRPTTNKIYDKKNEEILNLIKKEFGTLPFSHQHLLYYTQNAKAAVQLLAARKFIDSYPPLVDIPKSYVAQFEHTLYITEKSKFNISKGDDYEGHHHHHH | soluble
3 | ASFIEQQVGGSLNEASLAHHIEQVLATNGNLFIGNSLFVRLVDALCKLPEGYPVYTNRGASGIDGLIATMAGIAKASGQPTVGVVGDISALHDLNSISLLSKINHPSILFVINNSGGAIFDMLPVEARVKEQFYRLSHNYEFSQVAAMFGIEYIRPFTWADLKAKLKLAYGRKSATIVEIKVNDQDG | not soluble
4 | MDLHSLCVDSHALRRDGMRFLHTADWQLGMTRHFLAGDAQPRYSAARRDAVAGLKALAADVGAEFVVVAGDVFEHNQLAPQIVGQSLEAMRVIGLPVYLLPGNHDPLDASSVYTSTLFRAERPDNVVVLDRAGVHEVRPGVQIVAAPWRSKAPTTDPVAEVLAGLPTDAAIRLLVAHGGVDALDPDHDKPSLIRLAALDDALTRQAIHYVALGDKHSLTQVGSSGRVWYSGAPEVTNFDDVEPDPGHVLVVDIDESDPRHPVTVDARRIGRWRFVTLHHQVDTSRDIADLDLNLDLMTDKDRTVVRLALTGSLTVTDRAALDTCLDKYARLFAWLGLWERHTDLAVIPVDAEFTDLGIGGFAAAAVDELVATARGGDDESAVDAQAALALLLRLADRGAALEHHHHHH | soluble
5 | ANATKNTPSEDQQLANIIETHEAFYLKSSPFNQPEVIGNNAKLPDLSADFLLAQYQQGLAIYQQLIALDNEKLTQENQINFSVLTYSLKNQLDSYINKEHYMPLTAESGFHVWIANISKQVDFKTFTDYQDYLVRLSLLPAYFSQQTYWMKKGLKSGISQPKIVLKGFEQSIAAYIKEDVTESSYYQPFNKMSAFITTSQKKDLQQQAKQVLSTKVMPAYTAYYDFMVNVYQPNARDNIAAISLPNGKEYYQNRLVHYTTLPMTATEVHQQGVGEVKRIRVEMNAIIEQVNFDGSFSEFVEFLRTDPQFYASTPTELLKEASFIAKKMDAKLPRLFKTLPRTPYGVMAVPANIAPKYTTGRYAGSSRDDQPGNYWVNTYRLDRRPLYVLTALTLHEAVPGHHLQISLAKEMKDVAKFRNRSYISAFGEGWGLYSEYLGIEAGMYEDPYHNFGRLTYEMWRACRLVVDTGMHTQGWSREQAMDFLASNTALSLHNVKTEIDRYISWPGQALSYKIGELTIKRLRKEAEQTLGEDFDLREFHDQILKHGSMPLSMLDKIITQYINDKDNSVTK | not soluble
6 | GPGSMDDGFSRILLAWFSNNPSFGKTIPVTAGQAVLNTLYIRYVVNKSVSFEDILAYQFRWVSANDAATEVFNKFTDGKESMTSEQLGKFLRDVQRSDVTDRQIVEKFKYCFGGGIHKYNFISYNGSVLTNNAIDPARTSDVWQDMTQSFTHYMVSCARIEAEEDLKRAAADGTRALVLNINKASNGKLMVGSCELQTILEGVKKNGFATNTYPIVLCLSPGTPMPTPVQDEVAKMINDILESAVAEGLMFEGAMINDPKFSPGALRNKVLVMSHQSRLKPFIGFLVADMNKDGLGVRVTDVMEGTPASKGGVLKDDWLTHINGIPIQNKQHLRETLARLKAGDEFTVRRENLHDVKVVVGGAIDPQDTTASASLSSITFFKYSDSNDPKPWDTERIPASSLATTKLTRKDLLTHFAFCTVNSAEASTELPDAEGKAASLGIQFVDVDNSERCLPWTRGRFSDNGRCGYILKTDIDSAKSPELSLSVIGGPRLLNCSPLTSMNVTIHGAGTARVNGSQVSFTDCNQATIAVVQMTFEANGAERTFTSAFCPGLLRPGYRALPSVPFGEERASKKQIHGIYCFIK | not soluble
7 | MGSDKIHHHHHHMAKDIHSKAGTTLPPYFNIDPDAAMAELDQPTDTARFAEIAEGCARGRADLASRGLNEEGSKNLRLFSTWEITRYLIPVAQAHFRRVLKANPDLPQGRSETEGGAKWFTLDEVLRLRAFFAAQGSKAKNYLPYRPEGLPAKLVAVANFKGGVGKTSTAAHLAMSAALDGYKVLVIDLDSQGSMTSIFGGKIEDEWQTAFPLLARHYGEHLRVENQRRLDRGDAPQPLDESLTAAMEMTAKDVIQPTHWPNIDLIGAQLNLYWAEFQIPVWRMAARSWKLWDALTDRLEADGVLDQYDVVFIDTPPALGYLTINGLSAADILLVPMGASFLEFDSTGRFFDMLHSTFASIEEGENLAARALGRPEIGFEWDAVRAVITRYDGAQQGELAGLVQAYMGPTLSPHRQDFTALIGQAGEQVNGIYEADYRDFNRETYARGRETFDETYAAFKRLLNGVWRREELAVQEERAAS | not soluble
8 | MGICVSFRREDSNSSPTVKIVTVNGDLREYNVPVIASQVLEAESAAAYSSSSSSRPSSYFICDSDSLYYDDFIPAIKSEEPLQADQIYFVLPISKRQSRLTASDMAALAVKASVAIQNSVKKESRRRKKVRISPVMMLTGSNDSVNGNGSETTVKKGRPFVSKTAPVKASSGINRSGSVRNLRRYTSKRAKLAVRSFRLKLSTIYEGSVV | not soluble
9 | MGSDKIHHHHHHMPLSMNREVFITCAVTGSGGTQDRSPHVPRSPKEIAESAIAAAKAGAAIVHCHVRDPETGAPSRDLGLYREVTDRIRESDTDVVLNLTAGMGGDIVFGGVERPLPVTEDGTDMIGASARVAHVAECLPEICTLDCGTMNFAEADYVMTNTPGMLQAMGQMMTDLGVKPEIEAFDTGHLWYAKQLVKDGVLKSDALVQLCMGVPWGAPNDLNTFMAMVNNVPDDWNWSAFSLGRDQMAYVAASVLAGGNVRVGLEDNLYLDKGVLAENWQLVERAGTIVSNLGARVITPAEVREKLGLQKRAPITK | not soluble
10 | MAHHHHHHMEVREGEPPQSWTYKAVCMTLEKDDGVEQSGAPRLRLMVLTSEKGWPYSWRWKENKSTRDCHVNCEVDRVWRTVKGDLTKWFSRRAKNKLSPRRRLLVGTPWIGNSMAADSYLLYQLLHGDAEKLQVAVYSFGSQSFLFDKTTQAVREYVDTTKSKRVFFFWQL | soluble
11 | MAHHHHHHMEKLREHSERPVPDMLVLPLTASLPQEVQSRVFEPTPPRCRKVVLATNVAETSITITNLYFVVDSGFCKQNVFDPKTGMEQLKIVPISQAQAQQRAGRAGRIGPGKCFRMYTELQFQMDMEPATVPDIQRSNLFHVVLQLKAMGINDLFALDLMDPPPQETLVSALQKLRYLEALDDDGLLTPLGGRMAQLPIDPSQSKTLLTAVDMGCCEPVLTIVSMLAVQKRGVFYRPRDQHEASDAAKRQFHQPEGDQITLLAVYDAWVANGLSEEWCKRNFLKHRILMEARDTREQLSDMLHKRHASIPHHNDDALTEVRRAITAGYFFNVAKRITDVAYATLAERREVYVHPSSCLRDAPPKYVLYNELQLTNREYMRELLVIEPQWLVELAPAFYSRPRKGKLTKEQRAERLNPILRAWENGSSWRISKLRRRK | not soluble
12 | SLSLLIDIVDETGSVSEEMLKEVENLLQFAAEREGVQDQAEVSVTIVSNDDIHQINKEYRGKDAPTDVISFALEEEGEGEIEIVGAEMPPVLGNIIISADRTREQAEEYNHSFKRELGFLAVHGFLHLLGYDHMTKEEEEEMFTKQKELLDAYGLKRS | soluble
